Measured values as given in publication PMC5539989.

Target: GAL4 DBD-BRCA1 wild type (C-terminal region) (human) (UniProt P38398)
Assay: two-hybrid; mammalian two-hybrid: GAL4 DBD-BRCA1 as bait, VP16 AD-PALB2 as prey, co-transfected with the pG5Luc luciferase reporter and the phGR-TK Renilla control; read-out is luciferase activity above that of the BRCA1 construct alone

UniProt P38398, sequence (P38398 1396-1863): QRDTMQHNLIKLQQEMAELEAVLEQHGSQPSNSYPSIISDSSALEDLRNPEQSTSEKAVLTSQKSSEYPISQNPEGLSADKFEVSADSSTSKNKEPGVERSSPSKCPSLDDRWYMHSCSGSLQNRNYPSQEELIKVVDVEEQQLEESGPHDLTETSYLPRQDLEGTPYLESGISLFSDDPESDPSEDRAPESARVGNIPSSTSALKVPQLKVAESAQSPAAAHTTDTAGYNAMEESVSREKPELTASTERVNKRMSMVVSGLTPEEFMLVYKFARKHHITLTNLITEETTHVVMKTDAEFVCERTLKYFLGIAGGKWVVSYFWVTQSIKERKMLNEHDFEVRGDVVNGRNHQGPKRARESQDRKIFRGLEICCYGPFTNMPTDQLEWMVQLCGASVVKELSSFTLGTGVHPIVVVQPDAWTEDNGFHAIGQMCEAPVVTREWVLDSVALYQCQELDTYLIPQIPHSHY

B1: VP16 AD–PALB2 fusion protein (PALB2 aa 1–319) (domain or fragment)
chain: MDEPPGKPLSCEEKEKLKEKLAFLKREYSKTLARLQRAQRAEKIKHSIKKTVEEQDCLSQQDLSPQLKHSEPKNKICVYDKLHIKTHLDEETGEKTSITLDVGPESFNPGDGPGGLPIQRTDDTQEHFPHRVSDPSGEQKQKLPSRRKKQQKRTFISQERDCVFGTDSLRLSGKRLKEQEEISSKNPARSPVTEIRTHLLSLKSELPDSPEPVTEINEDSVLIPPTAQPEKGVDTFLRRPNFTRATTVPLQTLSDSGSSQHLEHIPPKGSSELTTHDLKNIRFTSPVSLEAQGKKMTVSTDNLLVNKAISKSGQLPTSS
fold increase in luciferase activity with VP16-PALB2: 3.8 fold
